Columns and labels:
[1] = target: wild-type tau repeat domain (WT tauRD) (human); assay: MST; Cy5-labelled wild-type or mutant tau/tauRD titrated with a serial two-fold dilution of DnaJC7 or single DnaJC7 domains; Monolith NT.115; technical triplicates; fit in PALMIST with a 1:1 binding model
[2] = target: P301L tau repeat domain (P301L tauRD) (human); assay: as above

B1: DnaJC7 (full-length, wild type, recombinant) (natural protein)
chain: MAAAAECDVVMAATEPELLDDQEAKREAETFKEQGNAYYAKKDYNEAYNYYTKAIDMCPKNASYYGNRAATLMMLGRFREALGDAQQSVRLDDSFVRGHLREGKCHLSLGNAMAACRSFQRALELDHKNAQAQQEFKNANAVMEYEKIAETDFEKRDFRKVVFCMDRALEFAPACHRFKILKAECLAMLGRYPEAQSVASDILRMDSTNADALYVRGLCLYYEDCIEKAVQFFVQALRMAPDHEKACIACRNAKALKAKKEDGNKAFKEGNYKLAYELYTEALGIDPNNIKTNAKLYCNRGTVNSKLRKLDDAIEDCTNAVKLDDTYIKAYLRRAQCYMDTEQYEEAVRDYEKVYQTEKTKEHKQLLKNAQLELKKSKRKDYYKILGVDKNASEDEIKKAYRKRALMHHPDRHSGASAEVQKEEEKKFKEVGEAFTILSDPKKKTRYDSGQDLDEEGMNMGDFDPNNIFKAFFGGPGGFSFEASGPGNFFFQFG
Kd [1]: 2.2 µM | Kd [2]: 6.2 µM
